Measured values as given in article PMC12326980.

Experiments:
Assay in all cases: purified protein
Conditions in all cases: 10 mM HEPES pH 7.5, 200 mM NaCl, 15 µM ZnSO4, 50 µg/mL BSA, 30°C
[1] = tested on: CO/N=C(\C(=O)N[C@@H]1C(=O)N2C(C(=O)O)=C(COC(C)=O)CS[C@H]12)c1csc(N)n1
[2] = tested on: CC(C)(O/N=C(\C(=O)N[C@@H]1C(=O)N2C(C(=O)[O-])=C(C[n+]3ccccc3)CS[C@H]12)c1csc(N)n1)C(=O)O
[3] = tested on: C[C@@H](O)[C@H]1C(=O)N2C(C(=O)O)=C(SCCN=CN)C[C@H]12
[4] = tested on: CO/N=C(\C(=O)N[C@@H]1C(=O)N2C(C(=O)[O-])=C(C[N+]3(C)CCCC3)CS[C@H]12)c1csc(N)n1
[5] = tested on: CCN1CCN(C(=O)N[C@@H](C(=O)N[C@@H]2C(=O)N3[C@@H]2SC(C)(C)[C@@H]3C(=O)O)c2ccccc2)C(=O)C1=O

Substance | Km [1] [µM] | kcat [1] [s⁻¹] | kcat/Km [1] [M⁻¹ s⁻¹] | Km [2] | kcat [2] [s⁻¹] | kcat/Km [2] [M⁻¹ s⁻¹] | Km [3] | kcat [3] [s⁻¹] | kcat/Km [3] [M⁻¹ s⁻¹] | Km [4] [µM] | kcat [4] [s⁻¹] | kcat/Km [4] [M⁻¹ s⁻¹] | Km [5] | kcat [5] [s⁻¹] | kcat/Km [5] [M⁻¹ s⁻¹]
CJO-1 (Chryseobacterium joostei) | 126 ± 4 | 528 ± 6 | 4.2e+06 ± 200000 | 1,000 ± 400 µM | 110 ± 30 | 100000 ± 60000 | 2,700 ± 500 µM | 280 ± 40 | 100000 ± 30000 | 440 ± 60 | 19 ± 2 | 43000 ± 9000 | 1,900 ± 300 µM | 30 ± 4 | 16000 ± 5000
CIM-2 (Chryseobacterium indologenes) | 180 ± 20 | 820 ± 30 | 4.7e+06 ± 700000 | 2,000 ± 300 µM | 380 ± 50 | 180000 ± 50000 | 2,300 ± 300 µM | 2000 ± 200 | 900000 ± 200000 | 700 ± 200 | 28 ± 5 | 40000 ± 20000 | 2,400 ± 500 µM | 48 ± 7 | 20000 ± 7000
